Test results published in publication PMC4933246, “Alanine Expansions Associated with Congenital Central Hypoventilation Syndrome Impair PHOX2B Homeodomain-mediated Dimerization and Nuclear Import*”.

B1: ATTA 2 site probe (dsDNA)
DNA 1: TAGTGTGATTGAATTAAAGGGCA
DNA 2: TGCCCTTTAATTCAATCACACTA
B2: PHOX2A promoter homeodomain binding site probe (dsDNA)
DNA 1: TCAGAGCGAATTGAATTAACTTCTTCACAC
DNA 2: GTGTGAAGAAGTTAATTCAATTCGCTCTGA
B3: ATTA 3-4 sites probe (dsDNA)
DNA 1: GGTGGTATTAAATTCTAATTAGAGATGCA
DNA 2: TGCATCTCTAATTAGAATTTAATACCACC
B4: PRS1 (dsDNA)
DNA 1: ATGTGTCATTAGTGCCAATTAGAGG
DNA 2: CCTCTAATTGGCACTAATGACACAT

molecular target: PHOX2B WT (HA-tagged) (human, UniProt Q99453 1-314); experiment: EMSA; self-competition and anti-HA supershift; EMSA as previously described (refs 25, 28) with rabbit reticulocyte lysate proteins; buffer, salt, pH and temperature not given; conditions: protein: ivt; tags: N-terminal HA; label: radiolabeled
Sequence (Q99453 whole entry): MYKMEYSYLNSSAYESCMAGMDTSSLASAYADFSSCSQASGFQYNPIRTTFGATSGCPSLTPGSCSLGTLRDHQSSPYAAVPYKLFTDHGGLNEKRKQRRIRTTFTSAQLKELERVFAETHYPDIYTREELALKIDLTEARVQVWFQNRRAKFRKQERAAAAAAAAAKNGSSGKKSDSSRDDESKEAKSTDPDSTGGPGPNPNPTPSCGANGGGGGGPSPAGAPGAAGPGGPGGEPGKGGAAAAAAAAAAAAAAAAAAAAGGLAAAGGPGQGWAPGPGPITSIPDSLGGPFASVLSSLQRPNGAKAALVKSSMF

Question: Does B1 bind?
Answer: binds

Question: Does B2 bind?
Answer: binds

Question: Does B3 bind?
Answer: binds

Question: Does B4 bind?
Answer: binds
